Read-outs that look alike come from different tables or passages of the source.
Legend:
[1] = test system: Human Peripheral Blood Mononuclear Cells (PBMC); test: Immunosuppression of selected peptides: Con A stimulated lymphocyte proliferation (EdU incorporation); assay type: cell-based; conditions: Con A (5 ug/mL); for inhibition of lymphocyte proliferation: peptide concentration of 50 uM, 72 hrs, relative to Con A stimulated cells without peptide (FIG. 10); for inhibition profile of proliferation at various peptide concentrations: dose-dependence (FIG. 11)
From the text: The peptides are dimerized via the C-terminal Cysteines and added at the concentrations indicated below.

[2] = test system: IFN-gamma; test: Cytokine modulation: IFN-gamma in supernatant of ConA stimulated PBMC (ELISA); conditions: 50 uM peptide, Con A stimulation of PBMC, 72 hrs, ELISA (FIG. 14)
Experimental: (§1) Donor PBMC's were maintained at 10^5 cells/well in a 96-well. […] After 72 hrs, lymphocyte proliferation was measured and supernatants analysed by ELISA for levels of the proinflammatory cytokines, IFN-gamma (FIG. 14 grey bar) and TNF-alpha (FIG. 14 black bar).

[3] = test system: TNF-alpha; test: Cytokine modulation: TNF-alpha in supernatant of ConA stimulated PBMC (ELISA); conditions: 50 uM peptide, Con A stimulation of PBMC, 72 hrs, ELISA (FIG. 14)
Experimental: as §1

[4] = test system: BAB/No Ag; conditions: R, i.m.; cited from earlier work
[5] = test system: HIV-1; conditions: M, cited from earlier work
[6] = test system: Human PBMC; test: Mixed leukocyte reaction: PBMC stimulated by Jurkat cells expressing HIV envelope variants; conditions: PBMC with Mitomycin C arrested Jurkat stimulator cells expressing the envelope, 1:1, 96 hrs (FIG. 12)
Experimental: The experiment utilizes Human PBMC prepared fresh from healthy donors. These are stimulated by adding a human T cell line (Jurkat) at a 1:1 ratio. The jurkat cells have been irreversible arrested by incubating them with 50 ug/mL Mitomycin C for 1 hour prior to PBMC stimulation. Cultures are maintained and lymphocyte proliferation is measured 96 hrs later by EdU incorporation and Click-iT labelling with Oregon Green (Invitrogen, Denmark) as recommended by the manufacturer. The degree of activated lymphocytes is proportional to the flourescence detection.

[7] = test system: HSV-2; conditions: M, i.m.; cited from earlier work
[8] = test system: Influenza; conditions: M, i.m.; cited from earlier work
[9] = test system: β-gal; conditions: M, i.m.; cited from earlier work
[10] = HSV-3; M, i.m./i.d.; cited from earlier work
[11] = test system: HIV-1; conditions: C, i.m.; cited from earlier work

LQNRRGLDLLFLKEGGLC (HIV) [CKS-17, reference compound]
inhibition of lymphocyte proliferation [1]: 93%

LQARVLAVERYLKDQQLLGIWGC [CS-3]
inhibition of lymphocyte proliferation [1]: 82% | IFN-γ secretion [2]: significantly reduces | TNF-α secretion [3]: significantly reduces

MCP-1
Effects: Ab/IgG [4]: ↑^e | Effects: Protection [4]: ↑

LQARVLAVERYLKDQQLLRIWGC [HIV G19R]
inhibition profile of proliferation at various peptide concentrations [1]: less steep | inhibition of lymphocyte proliferation [1]: 15%

RANTES
Effects: Ab/IgG [4]: ↑^e | Effects: Protection [4]: = | Effects: CTL ([5]; i.m.): ↑

LQARILAVETLIQNQQLLNLWGC [HIV M/O chimera]
inhibition profile of proliferation at various peptide concentrations [1]: less steep | inhibition of lymphocyte proliferation [1]: 22% | lymphocyte proliferation (activation of PBMC) [6]: decrease is relieved

B1: TCA-3 (protein, UniProt P10146 24-92, looked up)
C-C motif chemokine 1: KSMLTVSNSCCLNTLKKELPLKFIQCYRKMGSSCPDPPAVVFRLNKGRESCASTNKTWVQNHLKKVNPC
Effects: Ab/IgG ([5]; i.m.): ↓ | Effects: CTL ([5]; i.m.): ↑ | Effects: DTH ([5]; i.m.): ↑ | Effects: IgG1/IgG2a ([5]; i.m.): ↓

B2: CD80 (protein, UniProt Q00609 38-306, looked up)
T-lymphocyte activation …: VDEQLSKSVKDKVLLPCRYNSPHEDESEDRIYWQKHDKVVLSVIAGKLKVWPEYKNRTLYDNTTYSLIILGLVLSDRGTYSCVVQKKERGTYEVKHLALVKLSIKADFSTPNITESGNPSADTKRITCFASGGFPKPRFSWLENGRELPGINTTISQDPESELYTISSQLDFNTTRNHTIKCLIKYGDAHVSEDFTWEKPPEDPPDSKNTLVLFGAGFGAVITVVVIVVIIKCFCKHRSCFRRNEASRETNNSLTFGPEEALAEQTVFL
Effects: Ab/IgG ([5]; i.m.): = | Effects: CTL ([5]; i.m.): = | Effects: DTH ([5]; i.m.): = | Effects: Ab/IgG [7]: = | Effects: DTH [7]: = and ↑ | Effects: IgG1/IgG2a [7]: = | Effects: Protection [7]: = and ↑ | Effects: CTL [8]: =

B3: MIP-1β (protein, UniProt P14097 24-92, looked up)
C-C motif chemokine 4: APMGSDPPTSCCFSYTSRQLHRSFVMDYYETSSLCSKPAVVFLTKRGRQICANPSEPWVTEYMSDLELN
Effects: Ab/IgG [4]: ↑^e | Effects: Protection [4]: ↓

B4: CD40L (protein, UniProt P27548 112-260, looked up)
CD40 ligand, soluble form: MQRGDEDPQIAAHVVSEANSNAASVLQWAKKGYYTMKSNLVMLENGKQLTVKREGLYYVYTQVTFCSNREPSSQRPFIVGLWLKPSSGSERILLKAANTHSSSQLCEQQSVHLGGVFELQAGASVFVNVTEASQVIHRVGFSSFGLLKL
Effects: Ab/IgG [9]: ↑ | Effects: CTL [9]: ↑ | Effects: IgG1/IgG2a [9]: ↓ | Effects: Protection [9]: ↑

B5: MIP-1α (protein, UniProt P10855 24-92, looked up)
C-C motif chemokine 3: APYGADTPTACCFSYSRKIPRQFIVDYFETSSLCSQPGVIFLTKRNRQICADSKETWVQEYITDLELNA
Effects: Ab/IgG [4]: ↑^e | Effects: Protection [4]: ↑ | Effects: Ab/IgG ([5]; i.m./i.n.): ↑ | Effects: CTL ([5]; i.m./i.n.): ↑ | Effects: DTH ([5]; i.m./i.n.): ↑ | Effects: IgG1/IgG2a ([5]; i.m./i.n.): ↓ | Effects: CTL ([5]; i.m.): ↑ | Effects: IgG1/IgG2a ([5]; i.m.): ↑

B6: CD86 (protein, UniProt P42082 24-309, looked up)
T-lymphocyte activation …: VSVETQAYFNGTAYLPCPFTKAQNISLSELVVFWQDQQKLVLYEHYLGTEKLDSVNAKYLGRTSFDRNNWTLRLHNVQIKDMGSYDCFIQKKPPTGSIILQQTLTELSVIANFSEPEIKLAQNVTGNSGINLTCTSKQGHPKPKKMYFLITNSTNEYGDNMQISQDNVTELFSISNSLSLSFPDGVWHMTVVCVLETESMKISSKPLNFTQEFPSPQTYWKEITASVTVALLLVMLLIIVCHKKPNQPSRPSNTASKLERDSNADRETINLKELEPQIASAKPNAE
Effects: Ab/IgG ([5]; i.m.): = | Effects: CTL ([5]; i.m.): ↑ | Effects: DTH ([5]; i.m.): ↑ | Effects: IgG1/IgG2a ([5]; i.m.): = | Effects: CTL [8]: ↑ | Effects: Ab/IgG [10]: = | Effects: DTH [10]: = | Effects: IgG1/IgG2a [10]: = | Effects: Protection [10]: = | Effects: CTL [11]: ↑

Source: US20110305749A1, “HIV-1 Envelope Polypeptides for HIV Vaccine” (priority 2008, published 2011)
